Assay results published in patent publication US20160002338A1 (Hoffmann-La Roche, published 2016).

Experiments:
TtSlyD-FKBP-Her3 = molecular target: T1, TtSlyD-FKBP-Her3; test: SPR Biacore 4000, antibody captured, antigen 150 nM, 25 C
T1 construct: 15 kDa; N-terminal Met may be present or not; also called Thermus thermophilus SlyD FKBP-Her3; thermo SlyD-Her3
T1 chain: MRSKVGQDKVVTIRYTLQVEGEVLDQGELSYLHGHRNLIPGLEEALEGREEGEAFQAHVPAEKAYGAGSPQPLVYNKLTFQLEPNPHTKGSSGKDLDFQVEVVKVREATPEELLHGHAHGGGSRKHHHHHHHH
Protocol: (§1) In all assay the test antibodies were captured. The system was under the control of the software version V1.1. The instrument buffer was HBS-EP (10 mM HEPES (pH 7.4), 150 mM NaCl, 1 mM EDTA, 0.05% (w/v) P20). The system operated at 25° C. 30 μg/ml Rabbit polyclonal antibody (RAM IgG, (Rabbit anti Mouse IgG with Fc gamma specificity) GE Healthcare) in 10 mM sodium acetate buffer (pH 4.5) was immobilized using EDC/NHS chemistry according to the manufacturer's instructions on the spots 1, 2, 4 and 5 in the flow cells 1, 2, 3 and 4. The sensor was saturated using 1M ethanolamine. In each flow cell, referenced signals were calculated using spots 1-2 and spots 5-4, spot 3 served as a blanc control. […] The antibody capture level (CL) in response units was monitored. […] Thereafter, the antibody-antigen complex dissociation signal was recorded for 5 min. […] The recorded signal shortly before the end of the injection of the antigen was denoted as binding late (BL) in response units. The recorded signal shortly before the end of the recording of the dissociation is denoted as stability late (SL) in response units. The dissociation rate constants were determined calculated The antibody-antigen complex stability in minutes was calculated with the following formula: ln(2)/60*kd. The Molar Ratio was calculated with the formula: MW (antibody)/MW(antigen)*BL (antigen)/CL (antibody). […]

[1] = molecular target: T2, human recombinant HER3 ECD (human, UniProt P21860 20-643); test: as above
T2 construct: 68 kDa; also called human-Her3-ECD; full length Her3 ECD
T2 sequence (P21860 20-643): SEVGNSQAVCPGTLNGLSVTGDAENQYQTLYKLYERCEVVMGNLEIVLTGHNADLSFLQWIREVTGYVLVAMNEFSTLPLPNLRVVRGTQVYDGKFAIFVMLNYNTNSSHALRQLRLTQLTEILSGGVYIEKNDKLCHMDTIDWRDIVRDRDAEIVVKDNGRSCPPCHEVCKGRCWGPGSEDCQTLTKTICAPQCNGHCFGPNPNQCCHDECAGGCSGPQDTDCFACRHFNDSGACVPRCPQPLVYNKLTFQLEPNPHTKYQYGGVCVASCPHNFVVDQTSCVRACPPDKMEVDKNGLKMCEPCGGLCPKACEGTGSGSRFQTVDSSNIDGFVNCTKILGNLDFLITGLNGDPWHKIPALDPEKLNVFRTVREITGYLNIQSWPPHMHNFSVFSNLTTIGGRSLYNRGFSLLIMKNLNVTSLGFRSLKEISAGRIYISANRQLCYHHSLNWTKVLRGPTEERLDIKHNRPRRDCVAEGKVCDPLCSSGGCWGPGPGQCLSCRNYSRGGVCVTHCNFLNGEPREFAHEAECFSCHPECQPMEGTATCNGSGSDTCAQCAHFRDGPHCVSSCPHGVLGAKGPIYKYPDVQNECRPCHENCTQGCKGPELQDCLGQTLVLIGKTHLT
Protocol: as §1

B1: anti-HER3/HER4 antibody M-05-74 (antibody, V domains shown)
VH: QVQLQQSGAELAKPGASVKMSCKTSGYTLTDYWIHWVKQRPGQGLEWIGYINPYTGYTESNQKFKDKATLTADKSSNTAYIQLSSLTSEDSAVYYCARPYYYGDYWGQGTTLTVSS
VL: QIVLTQSPAIMSASPGERVTITCSASSSVSYMHWFQQKPGTSPKLLIYSTSNLASGVPARFSGSGSGTSYSLTISRMEAEDAATYYCQQRSSYPFTFGSGTKLEIK
notes: murine monoclonal antibody from hybridoma (supernatant or purified); also called M-074; M-5-74
TtSlyD-FKBP-Her3
  Molar Ratio MR: 1.1
[1]
  Molar Ratio MR: 0.5
